Test results reported in patent publication US6001604.

Target: SOD-proinsulin hybrid polypeptide expressed by plasmid pBAST-R (SOD-Insulin B chain-Lys-Arg-Insulin A chain hybrid polypeptide) (human)

## trypsin (Sigma) (enzyme)
  human insulin generation after enzymatic cleavage (radioimmunoassay and RP-HPLC) (% of the theoretical yield): 80
